One test concerns the target PD-L1 on cells (UniProt Q9NZQ7 19-290, limits assumed). Briefly: cell-based or functional assay.
For test [1], the target named is T1, Human PD-L1 (human, UniProt Q9NZQ7 19-239).
T1 construct: Amine-coupled to a CM5 chip for SPR; also called recombinant human PD-L1
Briefly: SPR, PD-L1 amine-coupled, variant as analyte, 1:1 model; third of three variants in the merged cell (G1 4-1 PD-1). On the technique in general: Surface plasmon resonance follows binding to a sensor surface in real time, without labels.

The target in a further test is Human CD3 (recombinant) (human). Put plainly: SPR, CD3 amine-coupled, variant as analyte, 1:1 model.
Sequence of Human CD3 (recombinant) (human) (chain, as listed by the source): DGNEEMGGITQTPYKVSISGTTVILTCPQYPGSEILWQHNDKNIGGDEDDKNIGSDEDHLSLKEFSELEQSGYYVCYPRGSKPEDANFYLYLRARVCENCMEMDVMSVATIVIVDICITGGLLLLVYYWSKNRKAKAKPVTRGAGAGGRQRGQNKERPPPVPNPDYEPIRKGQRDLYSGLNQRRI
Test [2] addresses T1, Human PD-L1. Briefly: SPR, PD-L1 amine-coupled, variant as analyte.
For test [3], the target named is T1, Human PD-L1. Put plainly: SPR, PD-L1 amine-coupled, variant as analyte, 1:1 model.
Test [4] concerns the target T1, Human PD-L1. The description is as above. This is another data set of the same source.
In the next test the target is T2, Human PD-L2 (human, UniProt Q9BQ51 20-219).
T2 construct: Amine-coupled to a CM5 chip for SPR; also called recombinant PD-L2
T2 sequence (looked up): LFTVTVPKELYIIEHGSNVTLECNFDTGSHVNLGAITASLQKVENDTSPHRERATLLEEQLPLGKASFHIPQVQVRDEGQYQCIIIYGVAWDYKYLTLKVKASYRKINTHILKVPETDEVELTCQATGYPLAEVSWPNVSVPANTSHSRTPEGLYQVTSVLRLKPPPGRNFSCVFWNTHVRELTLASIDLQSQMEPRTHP
Put plainly: SPR, PD-L2 amine-coupled, variant as analyte, 1:1 model.

A further test addresses T3, Human CLDN18.1 (human, UniProt P56856 1-261).
T3 construct: On transfected HEK293-6E cells
Briefly: flow cytometry, purified construct on transfected HEK293-6E cells.

The next test concerns the target T4, Mouse CLDN18 A2.1 (mouse, UniProt P56857 10-264).
T4 construct: On transfected HEK293-6E cells; also called Mouse CLDN18 2.1; mouse CLDN18.2 ortholog
T4 chain: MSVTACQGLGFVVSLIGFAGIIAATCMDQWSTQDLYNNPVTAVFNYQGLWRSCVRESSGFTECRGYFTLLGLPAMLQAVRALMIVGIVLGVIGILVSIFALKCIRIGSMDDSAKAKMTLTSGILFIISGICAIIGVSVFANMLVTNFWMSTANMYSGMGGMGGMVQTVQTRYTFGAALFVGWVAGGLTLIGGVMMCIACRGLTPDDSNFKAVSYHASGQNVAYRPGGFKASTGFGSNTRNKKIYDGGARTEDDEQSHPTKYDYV
Briefly: FACS on transfected HEK293-6E cells, 4 parameter logistic fit.

In a further test the target is T5, Human CLDN18.2 (human).
T5 construct: On transfected HEK293-6E cells; also called Claudin18.2
The test is described as above.

In a further test the target is T6, Cynomolgus monkey CLDN18 (cynomolgus monkey).
T6 construct: On transfected HEK293-6E cells; also called Cyno CLDN18; cynomologus monkey CLDN18.2 ortholog
T6 chain: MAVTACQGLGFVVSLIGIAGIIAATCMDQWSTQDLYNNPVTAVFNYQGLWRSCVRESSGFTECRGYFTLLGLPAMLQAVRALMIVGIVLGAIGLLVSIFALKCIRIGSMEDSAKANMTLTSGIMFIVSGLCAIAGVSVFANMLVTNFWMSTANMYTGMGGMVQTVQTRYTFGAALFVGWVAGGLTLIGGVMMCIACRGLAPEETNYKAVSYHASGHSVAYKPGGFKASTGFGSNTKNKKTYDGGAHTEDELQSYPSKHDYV
Described as above.

This is an account of results in patent publication US20250019440A1 (Zymeworks, published 2025).

T1 sequence (Q9NZQ7 19-239 limits assumed): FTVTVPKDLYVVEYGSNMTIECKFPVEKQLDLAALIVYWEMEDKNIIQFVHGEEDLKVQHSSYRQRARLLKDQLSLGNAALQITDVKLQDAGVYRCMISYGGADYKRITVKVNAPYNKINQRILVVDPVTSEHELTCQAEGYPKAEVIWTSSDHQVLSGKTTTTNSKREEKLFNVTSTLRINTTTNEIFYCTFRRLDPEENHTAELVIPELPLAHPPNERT
Sequence of PD-L1 on cells (Q9NZQ7 19-290 limits assumed): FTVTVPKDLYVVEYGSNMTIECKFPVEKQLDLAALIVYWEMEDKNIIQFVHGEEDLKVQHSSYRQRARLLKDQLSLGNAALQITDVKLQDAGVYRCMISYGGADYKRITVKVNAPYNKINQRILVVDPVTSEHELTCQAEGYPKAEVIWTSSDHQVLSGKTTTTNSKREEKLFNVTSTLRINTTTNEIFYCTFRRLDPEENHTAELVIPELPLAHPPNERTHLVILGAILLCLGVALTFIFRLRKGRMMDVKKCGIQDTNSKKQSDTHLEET
T3 sequence (P56856 whole entry): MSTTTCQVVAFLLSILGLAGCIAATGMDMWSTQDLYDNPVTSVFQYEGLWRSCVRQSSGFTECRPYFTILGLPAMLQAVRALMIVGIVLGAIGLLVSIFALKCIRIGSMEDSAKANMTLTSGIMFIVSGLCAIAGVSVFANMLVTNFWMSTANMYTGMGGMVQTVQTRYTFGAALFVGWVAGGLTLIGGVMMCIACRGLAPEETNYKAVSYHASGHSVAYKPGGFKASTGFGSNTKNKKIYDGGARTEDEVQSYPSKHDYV

B1: v38737 (other)
heavy 1: EVQLVESGGGLVQPGGSLRLSCAASGVTFNYYGMSWIRQAPGKGLEWVASITSSGGRIYYPDSVKGRFTISRENTQKTLYLQMNSLRAEDTAVYYCTLDGRDGWVAYWGQGTLVTVSSASTKGPSVFPLAPSSKSTSGGTAALGCLVKDYFPEPVTVSWNSGALTSGVHTFPAVLQSSGLYSLSSVVTVPSSSLGTQTYICNVNHKPSNTKVDKKVEPKSCDKTHTCPPCPAPEAAGGPSVFLFPPKPKDTLMISRTPEVTCVVVSVSHEDPEVKFNWYVDGVEVHNAKTKPREEQYNSTYRVVSVLTVLHQDWLNGKEYKCKVSNKALPAPIEKTISKAKGQPREPQVYVYPPSRDELTKNQVSLTCLVKGFYPSDIAVEWESNGQPENNYKTTPPVLDSDGSFALVSKLTVDKSRWQQGNVFSCSVMHEALHNHYTQKSLSLSPGGGGGSGDRPWNPPTFSPALLVVTEGDNATFTCSFSNTSESFRLVWHRESPGYETDTLASFPEDRSTPLPDARFRVTQLPNGRDFHMSVVRARRNDSGTYVCGAIAFHPVIQIKESLRAELRVTE
light: NFMLTQPHSVSESPGKTVTISCKRNTGNIGSNYVNWYQQHEGSSPTTIIYRNDKRPDGVSDRFSGSIDRSSKSASLTISNLKTEDEADYFCQSYSSGFIFGGGTKLTVLGQPKAAPSVTLFPPSSEELQANKATLVCLISDFYPGAVTVAWKADSSPVKAGVETTTPSKQSNNKYAASSYLSLTPEQWKSHRSYSCQVTHEGSTVEKTVAPTECS
heavy 2: QVQLVESGGGLVQPGGSLRLSCSVSGIDLSSNPMIWVRQAPGKGLQYIGIIDTDGSTYYADWAKGRFTISKDSTTVYLQINSPRAEDTAVYYCARRLHGSSNGYYDDLWGQGTLVTVSSGGGGSGGGGSGGGGSGGGGSDGQMTQSPSSVSASVGDRVTITCQASQSIYSYLSWYQQKPGQRPKLLIYKASTLASGVPSRFSGSGSGTDFTLTISSVQPEDFATYYCQQGYTVTNVDKNTFGGGTKVEIKAAEPKSSDKTHTCPPCPAPEAAGGPSVFLFPPKPKDTLMISRTPEVTCVVVSVSHEDPEVKFNWYVDGVEVHNAKTKPREEQYNSTYRVVSVLTVLHQDWLNGKEYKCKVSNKALPAPIEKTISKAKGQPREPQVYVLPPSRDELTKNQVSLLCLVKGFYPSDIAVEWESNGQPENNYLTWPPVLDSDGSFFLYSKLTVDKSRWQQGNVFSCSVMHEALHNHYTQKSLSLSPG
In general, Kd refers to the concentration at which binding is half-saturated. Take B1: the “EC50 (read off the curve); hybrid PD-1/PD-L1 reporter gene assay, delta RLU, PD-1+ Jurkat T cells with SNU-620 cells, top left graph; composite signal of CD3 engagement and PD-1:PD-L1 blockade” value with PD-L1 on cells was roughly 0.5 nM. In addition, the Kd is 280 nM in the test with Human PD-L1 [1] and 3.5 nM with Human CD3 (recombinant).

B2: v38426 (other)
heavy 1: EVQLVESGGGLVQPGGSLRLSCAASGVTFNYYGMSWIRQAPGKGLEWVASITSSGGRIYYPDSVKGRFTISRENTQKTLYLQMNSLRAEDTAVYYCTLDGRDGWVAYWGQGTLVTVSSASTKGPSVFPLAPSSKSTSGGTAALGCLVKDYFPEPVTVSWNSGALTSGVHTFPAVLQSSGLYSLSSVVTVPSSSLGTQTYICNVNHKPSNTKVDKKVEPKSCDKTHTCPPCPAPEAAGGPSVFLFPPKPKDTLMISRTPEVTCVVVSVSHEDPEVKFNWYVDGVEVHNAKTKPREEQYNSTYRVVSVLTVLHQDWLNGKEYKCKVSNKALPAPIEKTISKAKGQPREPQVYVYPPSRDELTKNQVSLTCLVKGFYPSDIAVEWESNGQPENNYKTTPPVLDSDGSFALVSKLTVDKSRWQQGNVFSCSVMHEALHNHYTQKSLSLSPGGGGGSGQVQLVESGGGLVQPGGSLRLSCSVSGIDLSSNPMIWVRQAPGKGLQYIGIIDTDGSTYYADWAKGRFTISKDSTTVYLQINSPRAEDTAVYYCARRLHGSSNGYYDDLWGQGTLVTVSSGGGGSGGGGSGGGGSGGGGSDGQMTQSPSSVSASVGDRVTITCQASQSIYSYLSWYQQKPGQRPKLLIYKASTLASGVPSRFSGSGSGTDFTLTISSVQPEDFATYYCQQGYTVTNVDKNTFGGGTKVEIK
light: NPPTFSPALLVVTEGDNATFTCSFSNTSESFVLNWYRMSPSNQTDALAAFPEDRSQPGQDARFRVTQLPNGRDFHMSVVRARRNDSGTYLCGAASLAPKAQIKESLRAELRVTEGGGGSGNFMLTQPHSVSESPGKTVTISCKRNTGNIGSNYVNWYQQHEGSSPTTIIYRNDKRPDGVSDRFSGSIDRSSKSASLTISNLKTEDEADYFCQSYSSGFIFGGGTKLTVLGQPKAAPSVTLFPPSSEELQANKATLVCLISDFYPGAVTVAWKADSSPVKAGVETTTPSKQSNNKYAASSYLSLTPEQWKSHRSYSCQVTHEGSTVEKTVAPTECS
heavy 2: B1 heavy 2
notes: CD3 Fab with C-term Cldn18.2 scFv x Cldn18.2 scFv Fc with attenuated (KO) PD-1 attached to CD3 LC (N-term)
As to B2, in the test with Human CD3 (recombinant), the dissociation constant (Kd) was found to be 77 nM. The binding result with Human PD-L1 [2] was “no binding”.

B3: v38739 (other)
heavy 1: EVQLVESGGGLVQPGGSLRLSCAASGVTFNYYGMSWIRQAPGKGLEWVASITSSGGRIYYPDSVKGRFTISRENTQKTLYLQMNSLRAEDTAVYYCTLDGRDGWVAYWGQGTLVTVSSASTKGPSVFPLAPSSKSTSGGTAALGCLVKDYFPEPVTVSWNSGALTSGVHTFPAVLQSSGLYSLSSVVTVPSSSLGTQTYICNVNHKPSNTKVDKKVEPKSCDKTHTCPPCPAPEAAGGPSVFLFPPKPKDTLMISRTPEVTCVVVSVSHEDPEVKFNWYVDGVEVHNAKTKPREEQYNSTYRVVSVLTVLHQDWLNGKEYKCKVSNKALPAPIEKTISKAKGQPREPQVYVYPPSRDELTKNQVSLTCLVKGFYPSDIAVEWESNGQPENNYKTTPPVLDSDGSFALVSKLTVDKSRWQQGNVFSCSVMHEALHNHYTQKSLSLSPGGGGGSGDRPWNPPTFSPALLVVTEGDNATFTCSFSNTSESFVLNWYRMSPSNQTDKLAAFPEDRSQPGQDARFRVTQLPNGRDFHMSVVRARRNDSGTYLCGAISLAPKLQIKESLRAELRVTE
light: B1 light
heavy 2: B1 heavy 2
Turning to B3, the dissociation constant (Kd) with Human PD-L1 [3] amounted to 310 nM; with Human CD3 (recombinant), 39 nM; with Human PD-L1 [4] it was 110 nM; in the test with Human PD-L2 it was 230 nM.

B4: v35777 (antibody, human IgG1, V domains shown)
VH: QSLEESGGRLVTPGTPLTLTCTVSGIDLSSNPMIWVRQAPGKGLQYIGIIDTDGSTYYASWAKGRFTGSKTSTTVDLKITSPTTEDTATYFCARRLHGSSNGYYDDLWGQGTLVTISS
VL: DGVMTQTPSSVSAAVGGTVTIKCQASQSIYSYLSWYQQKPGQRPKLLIYKASTLASGVPSRFKGSGSGTEFTLTISGVQCDDAATYYCQQGYTVTNVDKNTFGGGTEVVVK
notes: Rabbit variable regions on human IgG1 (constant region starts at alanine Kabat-114) and human C kappa (starts at arginine Kabat-108); also called parental rabbit chimeric; rabbit-human chimeric IgG1/kappa antibody construct
Usually EC50 stands for the concentration needed to bring the measured effect to its halfway point. Regarding B4, the binding result in the test with Human CLDN18.1 was “no binding”. The Bmax with Mouse CLDN18 A2.1 came out at 1640; with Human CLDN18.2, 2070; with Cynomolgus monkey CLDN18 it was 1660. Besides, the EC50 with Mouse CLDN18 A2.1 amounted to 0.87 nM; in the test with Human CLDN18.2 it was 1.29 nM; with Cynomolgus monkey CLDN18, 0.48 nM.
